The values below come from the DeepSol protein solubility set.

The data set in a line: soluble on expression in E. coli; label from the status in PepcDB or PDB records.
Take “MKAKAILLASVLLVGCQTSQNTGNVQQHAQSLSAAGQGEAGKFTSQARWMDDGTSIAPDQDLWAFIGDELKMGIPENSRIREQKQKYLRNKSYLHDVTLRAEPYMYWIAGQVKKRNMPMELVLLPIVESAFDPHATSGANAAGIWQIIPSTGRNYGLKQTRNYDARRDVVASTTAALDMMQRLNKMFDGDWLLTVAAYNSGEGRVMRAIKANKARGKPTDFWSLSLPRETKLYVPKMLALSEILKNSKRYGVRLPTTDESRALARVRLNSPVEMAQVADMAGMSISKLKTFNAGVKGSTLGVSGPQYVMVPKKHAEQLRESLASGEIDAVQSQLIADNTPLNSRSYKVRSGDTLSGIASRLGVSTKDLQQWNNLRGSRLKIGQSLTVGAGSSAQRLANNSDSITYRVRKGDSLSSIARRHGVNIKDVMRWNHDTDNLQPGDQLTLFVKDNSTPDSLEHHHHHH”: the “soluble on expression in E. coli” value is on record as “soluble”.

For the sequence “MKAKPSHQATSMSSSLRVSPSIHGYHFDTAARKKAVGNIFENIDQESLQRLFRNSGDKKAEERAKIIFAIDQDLEEKTRALMALKKRTKDKLLQFLKLRKYSIKVH”, the “soluble on expression in E. coli” value is given as “not soluble”.

On to “MKAKTDFFHMKQAGEPIVMVTAYDFPSAKLAEQAGVDMILVGDSLGMVVLGYDSTIPVTVDDMIHHTKAVRRGAPNTFIVTDMPFMSYHASKEEALQNARRIMQESGANAVKVEGADEVVDMIAALTKAGVPVVAHLGLTPQSVGVLGGYKVQGKDAESAKKLLDDAKQCEQAGAIALVLECVPKQLGAAMARELTIPVIGIGAGAEVDGQVLVYHDLLGYGVTRVPKFVKQYASIQETIVEALANYVADVKLRQFPEPAHTFTMKEEEWVALYGGKQG”, for which the “soluble on expression in E. coli” value was “not soluble”.

Take “MKALRSSSRLSRWREWAAPLWVGCNFSAWMRLLIRNRFAVHHSRWHFAVLYTFLSMVNSCLGLWQKIVFGRRVAETVIADPPIFIVGHWRTGTTLLHELLVVDDRHTGPTGYECLAPHHFLLTEWFAPYVEFLVSKHRAMDNMDLSLHHPQEDEFVWCMQGLPSPYLTIAFPNRPPQYEEYLDLEQVAPRELEIWKRTLFRFVQQVYFRRRKTVILKNPTHSFRIKVLLEVFPQAKFIHIVRDPYVVYPSTIHLHKALYRIHGLQQPTFDGLDDKVVSTYVDLYRKLDEGRELVDPTRFYELRYEDLIGDPEGQLRRLYQHLGLGDFECYLPRLRQYLADHADYKTNSYQLTVEQRAIVDEHWGEIIDRYGYDRHTPEPARLRPAVGG”: the “soluble on expression in E. coli” value is “not soluble”.

Regarding “MKALTTRQQEVYDLVRDHLAQTGMPPTRAEIAQRLGFRSPNAAEEHLKALARKGVIEIVSGASRGIRLLMEEEEGLPLIGRVAAGEPLLAQQHIEGHYKVDPSLFKPGADFLLRVNGMSMRDIGILDGDLLAVHKTQDVRNGQVVVARIDDEVTVKRLKKQGNIVHLLPENSEFQPIVVDLREQSFTIEGLAVGVIRNGDWI”, the “soluble on expression in E. coli” value was “not soluble”.

“MKARIMYEAYFNLTTKPFELLPNPDFIFPSKSHKRALMYLDYGISERAGFILLTGDIGTGKTTLIRNMIQLKDERTIISRIFNTRVEPEQLLAMICHDFGIPAEGRGKVALLNELNDYLIEQFALGNRPVLIIDEAQNLSADLLEDIRLLSNLETSDTKLLQIVLVGQPELREVLALPQLLQLRQRISINCHISPLSREETEGYIFHRLDRAGNRNAVAFSSDALDIVYRYSRGIPRLVNIICDFILLSAFAEQTTEIPGEMVRDIIGDLDFENHYWGGAEVAASERAPEAARLAPGRSDEATELVATLRAVIDRLESLEGDFARMSRGVLDEMSEKVASLENAFRFHVDETDSHISEIRRRIEKVQNLEVGTTGECQPQDSPKGLLKRMFGALEHHHHHH”: the “soluble on expression in E. coli” value was “not soluble”.

In the case of “MKAYLGLYTARLETPARSLKEKRALIKPALERLKARFPVSAARLYGLDAWGYEVVGFTLLGNDPAWVEETMRAAARFLAEAGGFQVALEEFRLEAFELDGLL”, the “soluble on expression in E. coli” value is listed as “soluble”.

As to “MKCPFCAHPDTRVADSRLMEERNAVRRRRHCPNCGKRFGTLETAELKMPAVIGPDKKRSPFNAQRLRNDLTAAARKSALTPEQIDETVRLTEHRLYTSGQRDIPSAALADMVLKELLRQDTEAAVRFAALHKRFDNPADFASWLAQAVKTGGKA”, the “soluble on expression in E. coli” value was “not soluble”.

As to “MKCVEVHVIDSSAIFQRKAVYRNMVTVPEVVAEILDEASALYFSVKNFRVEEASPESVEEVKEAARKTGDIHKLSDTDIKVLAKALDEIKKGNEVVLVTDDYAIQNVAMSLGIRFDGILHRQISKEFKWVKVCRGCGRRIESEICPVCGSEAIIRRVKNDKNRNSG”, the “soluble on expression in E. coli” value is “not soluble”.

For “MKDVVDKCSTKGCAIDIGTVIDNDNCTSKFSRFFATREEAESFMTKLKELAAAASSADEGASVAYKIKDLEGQVELDAAFTFSCQAEMIIFELSLRSLALEHHHHHH”, the “soluble on expression in E. coli” value was “not soluble”.

On to “MKDWFMNLLYYLKRPFIRLSRFRYRCGYGVHSPFAFSLITDVIYEKMPYYAYDLLKVEQKKRITTQRWEKGIPRINRLLFRLVNKVQPATIIEVGQPSAASLYLQSAKPSAGYLFASDLSELFLDADTPVDFLYLNDYRNPALLEEVFNICSRRTTPNSLFVVHGICYSKAMKNLWKQLQNDERVGITFDLYDAGLLFFDTTKIKQHYIVNF”, for which the “soluble on expression in E. coli” value is reported as “not soluble”.

With “MKEDWYRKMYGPSASKTYETSLFNLITSEFGYIGGPDVVKLFTKKIVELNNQYYLREEFVRPGQMRWLVLKAGQKYSKSKKLSEMQLIPVTLTLINPEDIEDRITKVKKNELIEKLIVRLCNETKEQGGVLTETDIAILFRLSCTMISNHVTSYEKRTKKVIPRAGTEMDMGKSLTHKRLAFHNYKKKIPTSENARLIDHTPESVDRYIKDGTRIEKLYAAGYDEWNMAFFTGLPIYVVQEYVEIIKSYEKEKNDKKDIENQ”, the “soluble on expression in E. coli” value was “not soluble”.

For the sequence “MKEEIIIAGFGGQGVLSMGKILAYSGLMEGKEVTWMPAYGPEQRGGTANVTVIVSDDKISSPILSKYDTAIILNQPSLEKFESRVKPGGILIYDGYGIINPPTRKDIKVYRIDAMDAANEMNNAKAFNMIVLGGLLKLRPIVTLENVVKGLKKTLPERHHHLIPMNEEAIKKGMELIRE”, the “soluble on expression in E. coli” value is given as “not soluble”.

For the sequence “MKEKILLGGYTKRVSKGVYSVLLDTKAAELSSLNEVAAVQNPTYITLDEKGHLYTCAADSNGGGIAAFDFDGETATHLGNVTTTGAPLCYVAVDEARQLVYGANYHLGEVRVYKIQANGSLRLTDTVKHTGSGPRPEQASSHVHYSDLTPDGRLVTCDLGTDEVTVYDVIGEGKLNIATIYRAEKGMGARHITFHPNGKIAYLVGELNSTIEVLSYNEEKGRFARLQTISTLPEDYHGANGVAAIRISSDGKFLYTSNRGHDSLTTYKVSPLGTKLETIGWTNTEGHIPRDFNFNKTEDYIIVAHQESDNLSLFLRDKKTGTLTLEQKDFYAPEITCVLPLLEHHHHHH”, the “soluble on expression in E. coli” value is recorded as “not soluble”.

In the case of “MKELIRKLTEAFGPSGREEEVRSIILEELEGHIDGHRIDGLGNLIVWKGSGEKKVILDAHIDEIGVVVTNVDDKGFLTIEPVGGVSPYMLLGKRIRFENGTIGVVGMEGETTEERQENVRKLSFDKLFIDIGANSREEAQKMCPIGSFGVYDSGFVEVSGKYVSKAMDDRIGCAVIVEVFKRIKPAVTLYGVFSVQEEVGLVGASVAGYGVPADEAIAIDVTDSADTPKAIKRHAMRLSGGPALKVKDRASISSKRILENLIEIAEKFDIKYQMEVLTFGGTNAMGYQRTREGIPSATVSIPTRYVHSPSEMIAPDDVEATVDLLIRYLGA”, the “soluble on expression in E. coli” value is “not soluble”.

“MKELTNEELRGIQLEQLKYIDRICRENGIEYTLAGGSLIGAIRHGGYIPWDDDIDIELTRPHYDHLISVLMDQLPNEKYALLHYKVRETYLPFAKLYDTRTSFTSKIDNLNRGTGVFLDIFPMDILPDNEEERQVFKKEFLKKAIQLTASNPHGLDFASSSKKIYFWGKLVLWMPQHIRFYGKYRILAEKLDEFMQKYRNSDNQLISYLYTGYKKAIFPKEIWEEYEDVKFEGLTARKLKNHEEYLTRQYGDYMKLPPENERVNHDYYKWYWKEKNEILEHHHHHH”: the “soluble on expression in E. coli” value was “soluble”.

As for “MKERKFINEAVKRLLVCEYVVKETENAGFGNMVMKRTPFGTNITLYVNRPGLVIGRRGSKVQQMTDTLEKKYGIETPQIEVKDVKDPDLNPSVIAKKIALSLEKGWSYRKAGNTSLNRTIQAGAKGVLIKISGKISGERARYQKFIYGNVKYSGEPGSKGMITGFSTAKLKVGILGVTVKILNPEYKLPDVFSIENITGGEEVGTESKADQTDVEGRETGNAEES”, the “soluble on expression in E. coli” value is “not soluble”.

Take “MKESLLTLTEKIMFTTTVLKPTITTPITMLITTMRTLVAMKIRHYWKMMAIKDRKIQIPPVKYQMELSIRTLEINLLKNVKETEANLLKRRTDRENKRHYEFGFFYNLRIHNIYIPTSFFFFNSIV”: the “soluble on expression in E. coli” value is listed as “soluble”.

“MKESYYSIGEVSKLANVSIKALRYYDKIDLFKPAYVDPDTSYRYYTDSQLIHLDLIKSLKYIGTPLEEMKKAQDLEMEELFAFYTEQERQIREKLDFLSALEQTISLVKKRMKRQMEYPALGEVFVLDEEEIRIIQTEAEGIGPENVLNASYSKLKKFIESADGFTNNSYGATFSFQPYTSIDEMTYRHIFTPVLTNKQISSITPDMEITTIPKGRYACIAYNFSPEHYFLNLQKLIKYIADRQLTVVSDVYALIIPIHYSPKKQEEYRVEMKIRILDHHHHHH”: the “soluble on expression in E. coli” value is “soluble”.

For the sequence “MKFCSLCGATVVQRIPDGDNRLRYVCDACHTVHYQNPRIVAGSLPVWDGQVLLCRRAIAPRLGYWTLPAGFMENGETLAQAAARETEEEANARIGDLQLYTLFDLPHISQVYLFFRAELLDLDFSAGDESLEVRLFDEAEIPWSELAFPTIGRTLECYFSDRREGCFPVRNEAIAPMLASYKKD”, the “soluble on expression in E. coli” value is given as “not soluble”.

Turning to “MKFGTVWKYYFTESLLKATIRTPSQLNLAPNALRPVLDQLCRLFPQNPTVQIRPIRLAGVRGEEIKAQASATQLIFHIHGGAFFLGSLNTHRALMTDLAARTQMQVIHVDYPLAPEHPYPEAIDAIFDVYQALLVQGIKPKDIIISGDSCGANLALALCLRLKQQPELMPSGLILMSPYLDLTLTSESLRFNQKHDALLSIEALQAGIKHYLTDDIQPGDPRVSPLFDDLDGLPPTLVQVGSKEILLDDSKRFREKAEQADVKVHFKLYTGMWHNFQMFNAWFPEAKQALADIAEFAHSLDLD”, the “soluble on expression in E. coli” value is given as “soluble”.

Regarding “MKFIVKPHPEIFVKSESVRKRFTKILECNIRNIVKSRTESVAVFNRRDHIEVTSESNEYHAEVLEILTHTPGIHHVLEVKQSEFKDLHDIYEQVLELSRPLIENKTFVVRAKRRGKHDFTSIELERYVGGGLNQAVESARVKLHNPDVTVKVEVSGDKLNQVLARHKGLGGFPLGTQEDVLSLISGGFDSGVSSYLHIKRGSKVHYCFFNLGGPAHEIGVKQVSHYLWNKYGSSAKVRFISVDFEPVVAEILEKVDDGQMGVILKRMFMRAAGMIAEKFKIEALVTGEALGQVSSQTLTNLRHIDNVTDTLILRPLINWDKEDIINLAREIGTEDFAKTMPEYCGVISKKPTVKAVKEKLEAEEAKFDFSILEKVVYEARQMDIRDIAKESEQAAPEVEQVQAVEEHAVVLDIRSPDEEDDNPLEIAGVDVKHIPFYKLGTQFGDLDQSKTYLLYCDRGVMSRLQALYLQEQGFNNVKVYRP”, the “soluble on expression in E. coli” value is on record as “not soluble”.

“MKGIEVENLKFSHNGREILHDINFEIDKGSFLIILGPNGAGKTTLLRCIAGILKYKGSIKVLGNDIKELSRIELAKLLAYVPQRIEPGFLRVFDFVLLGRKPYMGLNPGRKDLKAVEDALRLLGIQRLEDRIMKTLSGGELQKVAIARAIAQETPVILLDEPTNNLDPKSQIEVMEIIKDLVKRGKTVVTVMHDLTLALRFGEEFLFLKDGRSTGLLTREELEEKILSETYGVKIRVARVEGEVIPLVGL”: the “soluble on expression in E. coli” value is reported as “soluble”.
